In the DeepSol protein solubility set:

assay: soluble on expression in E. coli; label from the status in PepcDB or PDB records

Soluble on expression in E. coli, not soluble:
MGSDKIHHHHHHMNVAIIGCGYVGYQVAQYWQQKMNFVVSTTTTSPERVPALQSVSQRVFVTSGNDLDSLKSVLHNQDVVLLSVGAKGAEVYEETYLQTAQNLVSCLQQNPSVKQLIYTGSYAVYGDRNGVWVDEETPLAPANLNAQILRKTEDILLSASSENLRVCIFRLGGIYGPGRELLKIFSRYSGTNRPGGEDITNWIHLDDIVGAIEFARNRRLQGIYNLVDDAHLTSRDLLDSLFEKHNLPKVIWDTTVKSTRPYNAWVSNEKLKEAGYQLIHPQMIF, MGSDKIHHHHHHMNYLVISPFYPENFQPFTIELAKKEGVTVLGIGQEPYDQLPEELRNALTEYFRVEDLENIDEVKRAAAFLIYKHGPIDRVESHNEYWLENDAALREQFNIFGAKPKHLKKTKFKSEMKKYFKKAGVPVVPGVVVKSERDFGRALKNVGFPMIAKPDNGVGASGTFKIENKEDFDRFVETWDGATIYFLEKFVNSSIITTYDGLLDHEGNVVFETGLTYVHTPLELMLSRKDNAYFIEKELDPQLVKYGRAIIKAFGMRERFFHIEFFKDGDDYIAIEYNNRMAGGFTVEAYNYAHSIDLFRDYANVATGGTVEERRFEPQYCLVATRRDTTEYVHSADDIHQKFAGKIKTVKRMPDAFAELQGNDAYLLVTESKKELDEMIAYIGLTK, MGSDKIHHHHHHMPALAHRRSDIASGTRTTALTDHRFRGRITSFTRQVPKLMNKQQGNTPVHIWRVDFEGMEMRTTSSDGIHVWIARDDVMEALQIPDPGYALSFVTPEDQAALSSGTDVPDEEDEPDGLPMINEIAVYEIMARFPTPPTGRFKPWLLRLRHLFFELMTRDDEATFLLQ, MGSDKIHHHHHHMPAVVVREYARLTTAPLPQNTLDAAHISPSAFSWLVKLGQQFKANGLQLLELDDQQWLRLDNYVGVLESPCGQVIEILPKHRVEGECINSARKLLRKLILNALQLKQRETEYTDIERFDAPLTEWLMAQFLTELDSVIKRGMRFDYQRIEESQRFLRGQLDVVKQLRQPAGREHIFNIRHDIFTADRAENRLLKTALLRVCKTTQDNDNWRLAHELQSLLHELPTSTDIQADFTTWRSDRLMAHYQAIKPWCEFVLSQHVPLAVQGLWQGISMLFPMERLFESYVAAELDAAVQRMLGVKGEVRTQLASKYLCKHQGKDFFQLQPDLQLKLGADHWILDTKWKLLDASDKENKYGLSQQDFYQLFAYGQTYLGGDGTLVLIYPAWHKFPAGTYLGEFRFNDKLTLKVLPFDLDAQNAAKDLISKLQQGVKQSLPS, MGSDKIHHHHHHMPECSKAWAVREEPELLTDRRHTDDGGEFVSQPRIIEPAIRTLIDTPLRVGESPTWDERTGDLWFVDILAPAIFCLSPSGKLQRFDMPAQIGCLGLCQSNLIVAALKTGVHLLNPQNGELELLCDPDEGRADSRLNDGKVGPDGHFWVGTRDEADVPTGNARLYRVSSSGHVERFIDGDMLTSNGLAWSPDETRMYHSDSSGLLLQVFDFDVQTGRLGPAKRLHDFQPDEGRPDGAATDSEGCYWSAGVQAGRLNRFTPDGELFEIYKMPFKGPTMPCFGGPELKTLYVTSLVTDTNGVATSGTLVAFDAPVAGAPIHKFPL, MGSDKIHHHHHHMPEEKQKKSVLEKALKRIEENFGKGSIMILGDETQVQPVEVIPTGSLAIDIATGVGGYPRGRIVEIFGQESSGKTTLALHAIAEAQKMGGVAAFIDAEHALDPVYAKNLGVDLKSLLISQPDHGEQALEIVDELVRSGVVDLIVVDSVAALVPRAEIEGAMGDMQVGLQARLMSQALRKIAGSVNKSKAVVIFTNQIRMKIGVMFGSPETTTGGLALKFYATMRMEVRRGEPIKEGKDVIGNVISVKIVKNKVAPPFKTAQTYIIYGKGIDREYELFNIAVNEGIVDRKGSWYYYTTLKGEEVSLGQGSSNAVQFLKDNPEIAGEIERRIREKYGLLSVEKEEQRKEKKSSGEEAS, MGSDKIHHHHHHMPELTEFQKKRLENIKRNNDLLKKLHLSGVASQIKHEAGVLEKSRAPAKKKQKTTNTRATKSASPTLPTRRSRRLRGESADDVKGIPNVNDNQLLKMGSPDGQDKNFIDAIKEKPVIGDVKLSDLIKDEDESALLEKFKRFNNGNFSSGDFFEEIKKRQGDVTGMDEFDLDLYDVFQPNEIKITYERISATYFHPAMEKKLIIAGDTSGTVGFWNVRDEPLADSEEDRMEEPDITRVKLFTKNVGRIDCFPADTSKILLTSYDGSIRSVHLNNLQSEEVLTLKNEYDDSLGISDCQFSYENPNVLFLTTLGGEFTTFDTRVKKSEYNLRRLADKKIGSMAINPMRPYEIATGSLDRTLKIWDTRNLVKKPEWSQYEDYPSHEIVSTYDSRLSVSAVSYSPTDGTLVCNGYDDTIRLFDVKSRDHLSAKLEPKLTIQHNCQTGRWTSILKARFKPNKNVFAIANMKRAIDIYNSEGQQLAHLPTATVPAVISWHPLRNWIAGGNSSGKIFLFTDDSGTIKQEE, MGSDKIHHHHHHMPENDFFAGIDAQLDTWEFRTLADAFKPRPPLQYAITGLFTLPSLTIVFGAPGTLKSMLLGSAALHVAGGLPWLGRKVKAFPTMWLDMDNGKRRTDERFEALARHLGLNEGTPFFYISMPTPMFNAGDTGDTEAMVNRMISRGIKLLFIDNLGLISPGADENSDAMVKVMGNLRLLAERTDAAVVIIHHQRKKSKQTQTARTGETLRGHSSIEASLDLALLVEREFDSDIITVHSTKTRDTEVRPFAAEWRYEHKPGTDELETAGFVSAEGENSSETVLEKAIIETVSSNALINQTKLKDDVMKLTGIGRNQVINMIRALEVRKALNVKPGSNNEKLYYIE, MGSDKIHHHHHHMPFDPKIRGPLDVRPLLQLMSAGSWQVELAHERDCHLVIWITRGQGRVLLDGQCRGFGPHTALCIPARTLFSLELGRQCIGQVLRIGEDIPCGLPETPMQIRINDMQEQGRINALFDAALREQQVADDHTAKAITSYADLVGIHLQRLWVRAPENRKPTAARRLCRAYCARLAQDAEGAFNMAGHASELGVTPTHLTRVCKQETGKTAAALLTERQLHAARSLLASTRLPMRDIAQSLGFGSAAYFTRFITQHTGSTPSDLRKKAHGAQLASGRNP, MGSDKIHHHHHHMPFDQGGIKMKPLLQTVDLKKYFPQGKRILKAVDGISIEIKEGETLGLVGESGCGKSTLGRTILKLLRPDGGKIFFEGKDITNLNDKEMKPYRKKMQIIFQDPLGSLNPQMTVGRIIEDPLIIHKIGTKKERRKRVEELLDMVGIGREFINSFPHEFSGGQQQRIGIARALALNPKFIVCDEPVSALDVSIQAQIIDLLEEIQQKMGISYLFIAHNLAVVEHISHKVAVMYLGKIVEYGDVDKIFLNPIHPYTRALLKSVPKIPWDGQKQRFYSLKGELPSPIDLPKGCRFQTRCTEKKAICFEKEPELTEVEKNHFVSCHLVRSYRG, MGSDKIHHHHHHMPGSHNITKQTGASKMSSTRGAFFPDALMQQVKARFHHVDHDLDGRARLFFDNAGGSFRLKAAVDAYARIDALPDCPERIHERALDLQAIQSRGEDDVRTILNAQGGTVYASLTASGAMFDMVRAIMENVPGTNAVTTVLEHPSSYDAMTYYAERTGKTLRIAPSNPETGGVDVDAIVSLIDADTALLSVMFASNISGAKFDIEAIVARARQKKPGLFIVVDAVQHAPHGIIDLQRTPVDGINFAPYKFFGCRGSGISWLSPRAAALPHHRLAAKESGVWELGSPAPAQFAVVTSIVDYVKWIGRYFVDSDDRRTLFVEGMHRIELHERALLAALLDGCGGRRGLRSIDGVEVYWDHDDLTKRDLIVGIGFAHLEPTQAVREYEKHGVIVYERVASSLYSGRMLKSFRLAGAVRISPLHCHAPDDIARFLAITGTLAANR, MGSDKIHHHHHHMPHSVPPLTDIGPLPTASTVRTVVFSDFDETYLAHSGTPEQVRSRQALENYLEDAGERHGLLFGWVTGSSLSSVLGKARRHGLRFLPHFIACSLGTELHVISEAGIQPEPGWQRRMLTTGEHLEGLAEEAFRELRTRGVPLVPQSCRAPGSRVISYYYFAQDPERDARQLALIRRTADRLSLGVNLSRCNPAAGDPDDCYDVDFLPRDCGKRHIVEYICRLYAVSEADAFAFGDSGNDLEMLTAVGRGLLVGNCTEEARARYPQVSARSHADAILSELRGVLP, MGSDKIHHHHHHMPILLLAQSDAHLSLGAAQGPGAELDRRACEQLDIPVLRRPLGGGVVWVDPGQLNYFFIFPAAAGVRRAPELFDRIAPWVLAVHAHFGLEVEVRGGQDFWCRGRKIGGTGAASIGHSLVLGGSFILEAQWTSFADCVAAPSAGFRAWLKEALEEDLGSWSRLLGRVVGPEVVLDACPALLHAAGWDVVVTRPTEAERRAMTQVELEDVDWEQPVRRRVRAGIKLKAGAFLTEQHWPDGHWLRVWTENGTFRRIAGSAWSAGQGDTLTGLQPGSERFDERLREMAGAGAALWGERLSETAVWAD, MGSDKIHHHHHHMPLLDIRNLTIELNTNNTKVKVLEKVSLTLNAGEIHGLVGESGSGRSLLAKAILGALGPQWTVIADRLMLDGKNLLDMSPKQRRCLMGSDIAMIFQDPSGSLDPVKTIGSQLIESMTPNKAVAFWRRGKDTYLNALKWLHKVGIKNPKSLMSCYPWELSEGECQKVMIAMAIANRPKLLIADEPTNSVELNAQAQIFRLLSQLNQLQNVSILLISHELETLVQWCDHLTVLYGGQVMESGPTDEMIAHPFHPYTKALLKNLPDYTGKMRHKSYLPTLQGSSPSLHNMPAGCRLGPRCPEAQRNCVKQPALEHQKDRYFACHFPYLNEQDTDDDAIA, MGSDKIHHHHHHMPNPTRAFLLGPLLKGVSRSFYLTLRVLPAGMRDPIGLAYLLARAADTIADTSLIAPQRRLTLLLSLREQVNGATDDAALFQRMAAEVAGQQVQSDEKVLLESLGPALDVLSQLNEFDRKAVREIVSTLTEGMEFDLRTFPDERSGQIAALREYDELDRYTYLVAGCVGEFWTTMTYAHMPGTLKERADVMARRGVRFGKALQMTNVLRDCGKDLRIGRCYLPQTMLDRYGLSPQDLLRPDNSVRARPLMIELLRKTVDHFREALDYTLAIPASAVRLRLASLWPILIGLETLILLADNDAWLDPQKVSKVRRNKVYQIIASSLLLVPSNGLVRHAVERRIRQIEARF, MGSDKIHHHHHHMPQISVTILRGADTIGGSCVKINHGEDSIVLDYGAPLMDSTGVSIDADLASSPSMENGILLDIQQQDTRPPLAYLLSHAHPDHYGLLRSLPKSSNIYLSDSSYSMMTIGNLFYPEALRFSSLEQCRQFTPGKPFQVGPFTVTAFLMDHSAFGACSLLIEVDGKQVYYTGDFRGHGRKSQVSDYIYANVKQPDLMLLEGTTLNGGHSLQFPTEVSVEDAMVSALNEGDGPAFVSASGSNIDRIVSLYNATKRTGKELVIDLYQLYLLEALKKYSPSLPPHKNDHLKVIFPQFQLAIIKSEFGDDFLRYSNRHVNLSKLKGTNYVFRLSPYAMTPYLDSFKEKGVKPKLIYSMWLGYQSKQPKFAEIANKYQESWQYIHTSGHAYLEHLQSFAGNISPKVLVPIHTLNRDKFSSYFDNVRIVENGESIVCE, MGSDKIHHHHHHMPRITQEISYNCDYGDNTFNLAIDIGGTLAKVVFSPIHSNRLMFYTIETEKIDKFMELLHSIIKEHNNGCYRMTHIIATGGGAFKFYDLLYENFPQIKGISRFEEMEGLIHGLDFFIHEIPDEVFTYNDQDGERIIPTSSGTMDSKAIYPYLLVNIGSGVSILKVTEPNNFSRVGGSSLGGGTLWGLLSLITGAQTYDQMLDWAQEGDNSSVDMLVGDIYGTDYNKIGLKSSAIASSFGKVFQNRMTSNKSLENNENKLYSSHESIEKNNGQMFKNPDICKSLLFAISNNIGQIAYLQAKINNIQNIYFGGSYTRGHLTTMNTLSYAINFWSQGSKQAFFLKHEGYLGAMGAFLSASRHSSTKKTST
